Source: patent US6696546

Assays:
[1] = tested on: 8-mer PAP CRM-derived peptide (SKIRILVG)
[2] = target: bacterial produced, purified his-PAP I (UniProt P25500)
[3] = tested on: 8-mer peptide of scrambled sequence (LRSGIKVI)

bacterial produced, purified his-PAP I, sequence (P25500 other isoform, or with tags, fused parts or gaps): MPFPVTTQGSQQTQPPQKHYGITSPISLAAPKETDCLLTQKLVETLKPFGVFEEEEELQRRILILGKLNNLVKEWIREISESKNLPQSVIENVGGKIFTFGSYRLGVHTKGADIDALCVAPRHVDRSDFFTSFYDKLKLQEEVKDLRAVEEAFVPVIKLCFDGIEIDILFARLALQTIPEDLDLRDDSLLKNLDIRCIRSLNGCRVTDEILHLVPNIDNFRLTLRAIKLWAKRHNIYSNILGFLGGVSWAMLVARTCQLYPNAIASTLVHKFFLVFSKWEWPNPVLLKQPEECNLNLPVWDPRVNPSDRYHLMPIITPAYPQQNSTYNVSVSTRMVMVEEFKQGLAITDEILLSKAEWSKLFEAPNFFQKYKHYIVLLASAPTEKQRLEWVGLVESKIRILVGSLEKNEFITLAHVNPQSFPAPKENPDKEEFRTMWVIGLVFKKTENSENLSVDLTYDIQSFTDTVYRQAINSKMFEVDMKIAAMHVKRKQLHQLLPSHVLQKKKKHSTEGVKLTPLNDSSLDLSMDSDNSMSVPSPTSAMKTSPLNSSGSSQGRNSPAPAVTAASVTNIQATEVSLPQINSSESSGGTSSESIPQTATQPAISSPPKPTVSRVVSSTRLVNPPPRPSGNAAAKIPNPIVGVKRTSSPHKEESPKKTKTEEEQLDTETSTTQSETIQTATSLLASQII

Substance | pRB phosphorylation by cyclin A/cdk2 (in vitro kinase assay, 32P, autoradiography; peptide at 9 µM and 18 µM) [1] | 32P incorporation into PAP (in vitro kinase assay, autoradiography) [2] | pRB phosphorylation by cyclin A/cdk2 (in vitro kinase assay, 32P; peptide at 9 µM and 18 µM) [3] | pRB phosphorylation by cyclin B1/cdc2 (in vitro kinase assay, 32P; peptide at 18 µM) [1]
human cyclin A/flu-tagged cdk2 | PAP's CRM effectively inhibited pRB phosphorylation by cyclin A/cdk2 (lanes 2 and 3) | 32P was efficiently incorporated into PAP | a peptide with PAP's CRM scrambled was also tested, and it showed no effect on pRB phosphorylation (lanes 4 and 5) | –
human cyclin B1/flu epitope-tagged p34cdc2 | – | – | – | PAP's CRM also strongly and specifically inhibited phosphorylation of pRB by cyclin B1/cdc2
